Data published in article PMC8184850, “Cryo-EM structure of TFIIH/Rad4–Rad23–Rad33 in damaged DNA opening in nucleotide excision repair” (Nature Communications, 2021).

T1: Tfb2 (yeast, UniProt Q02939 1-513)
T1 construct: Tfb2 (p52 homologue), subunit of yeast coreTFIIH; Tfb2C 412–513 as printed; Stood in the assays as part of coreTFIIH; also called yeast homologue of p52; source: purified from yeast as a subunit of coreTFIIH
T1 sequence (looked up): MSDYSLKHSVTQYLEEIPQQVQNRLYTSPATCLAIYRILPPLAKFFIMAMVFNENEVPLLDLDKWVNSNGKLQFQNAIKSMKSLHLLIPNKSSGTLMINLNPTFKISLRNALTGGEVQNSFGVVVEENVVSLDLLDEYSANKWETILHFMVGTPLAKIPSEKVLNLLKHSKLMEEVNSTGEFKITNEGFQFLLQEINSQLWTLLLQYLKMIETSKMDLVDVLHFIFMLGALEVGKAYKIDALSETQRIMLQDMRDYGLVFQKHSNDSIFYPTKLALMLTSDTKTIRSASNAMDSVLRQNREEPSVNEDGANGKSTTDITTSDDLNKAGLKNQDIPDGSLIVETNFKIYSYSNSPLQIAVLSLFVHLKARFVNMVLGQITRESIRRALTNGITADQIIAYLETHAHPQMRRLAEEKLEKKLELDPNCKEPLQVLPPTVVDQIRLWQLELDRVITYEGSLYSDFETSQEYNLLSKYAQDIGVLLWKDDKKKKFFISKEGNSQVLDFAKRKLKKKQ

T2: Ssl2 (Saccharomyces cerevisiae, UniProt Q00578 1-843)
T2 construct: Ssl2 (XPB homologue), subunit of yeast coreTFIIH; C-Ssl2 549–776, C-terminal region 771–843 as printed; Stood in the assays as part of coreTFIIH; also called yeast homologue of XPB; source: purified from yeast as a subunit of coreTFIIH
T2 sequence (looked up): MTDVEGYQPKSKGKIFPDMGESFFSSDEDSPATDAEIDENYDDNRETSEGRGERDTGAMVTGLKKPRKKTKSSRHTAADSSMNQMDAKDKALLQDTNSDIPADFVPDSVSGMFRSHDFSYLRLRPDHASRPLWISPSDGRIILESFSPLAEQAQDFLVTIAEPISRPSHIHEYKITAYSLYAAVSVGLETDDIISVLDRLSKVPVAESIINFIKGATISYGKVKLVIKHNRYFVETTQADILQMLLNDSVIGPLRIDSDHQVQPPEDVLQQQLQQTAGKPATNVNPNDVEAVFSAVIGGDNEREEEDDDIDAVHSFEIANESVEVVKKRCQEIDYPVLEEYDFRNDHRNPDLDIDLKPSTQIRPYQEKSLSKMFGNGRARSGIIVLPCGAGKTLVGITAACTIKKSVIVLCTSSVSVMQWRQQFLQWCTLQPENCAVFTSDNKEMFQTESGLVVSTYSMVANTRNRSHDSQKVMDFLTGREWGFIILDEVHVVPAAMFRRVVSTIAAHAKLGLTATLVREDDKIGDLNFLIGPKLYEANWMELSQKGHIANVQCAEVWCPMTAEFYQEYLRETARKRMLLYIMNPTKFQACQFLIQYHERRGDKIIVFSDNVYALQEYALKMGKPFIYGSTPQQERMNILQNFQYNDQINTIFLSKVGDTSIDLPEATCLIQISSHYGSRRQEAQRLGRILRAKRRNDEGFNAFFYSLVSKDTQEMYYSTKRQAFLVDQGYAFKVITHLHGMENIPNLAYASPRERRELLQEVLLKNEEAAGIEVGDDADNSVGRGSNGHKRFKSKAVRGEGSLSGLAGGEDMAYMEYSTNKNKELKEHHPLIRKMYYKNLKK

T3: Rad4 (yeast, UniProt P14736 1-754)
T3 construct: Rad4 (XPC homologue), yeast; Stood in the assays as part of Rad4–Rad23–Rad33; written alone for the contacts of the subunit; also called yeast homologue of XPC; source: Hi5 insect cells, co-expressed with Rad23, purified as the Rad4–Rad23 complex
T3 sequence (looked up): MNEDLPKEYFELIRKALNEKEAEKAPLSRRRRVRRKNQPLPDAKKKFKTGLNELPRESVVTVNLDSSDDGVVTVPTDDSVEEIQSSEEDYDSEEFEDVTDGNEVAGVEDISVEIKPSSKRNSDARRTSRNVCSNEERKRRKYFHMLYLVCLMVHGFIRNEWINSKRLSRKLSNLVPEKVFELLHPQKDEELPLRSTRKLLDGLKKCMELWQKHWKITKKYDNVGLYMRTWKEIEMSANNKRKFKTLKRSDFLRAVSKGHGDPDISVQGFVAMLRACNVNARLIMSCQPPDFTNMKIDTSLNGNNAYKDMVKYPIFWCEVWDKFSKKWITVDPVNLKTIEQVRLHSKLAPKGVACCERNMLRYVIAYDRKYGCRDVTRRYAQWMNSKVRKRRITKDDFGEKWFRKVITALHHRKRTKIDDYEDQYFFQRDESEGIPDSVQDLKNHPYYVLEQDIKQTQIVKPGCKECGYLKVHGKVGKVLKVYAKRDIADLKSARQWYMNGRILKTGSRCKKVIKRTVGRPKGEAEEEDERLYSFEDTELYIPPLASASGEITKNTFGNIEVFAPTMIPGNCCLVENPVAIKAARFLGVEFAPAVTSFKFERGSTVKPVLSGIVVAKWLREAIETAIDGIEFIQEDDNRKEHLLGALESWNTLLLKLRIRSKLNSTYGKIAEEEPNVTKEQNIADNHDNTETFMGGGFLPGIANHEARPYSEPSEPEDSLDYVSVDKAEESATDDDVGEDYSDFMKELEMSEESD

T4: Full-length Rad4–Rad23 complex (yeast, UniProt P14736 1-754; P32628 1-398)
T4 construct: Rad4 (XPC homologue), yeast; Rad23 (RAD23B homologue), yeast; also called Rad4–23; yeast homologue of XPC–RAD23B
T4 sequence (looked up) 1: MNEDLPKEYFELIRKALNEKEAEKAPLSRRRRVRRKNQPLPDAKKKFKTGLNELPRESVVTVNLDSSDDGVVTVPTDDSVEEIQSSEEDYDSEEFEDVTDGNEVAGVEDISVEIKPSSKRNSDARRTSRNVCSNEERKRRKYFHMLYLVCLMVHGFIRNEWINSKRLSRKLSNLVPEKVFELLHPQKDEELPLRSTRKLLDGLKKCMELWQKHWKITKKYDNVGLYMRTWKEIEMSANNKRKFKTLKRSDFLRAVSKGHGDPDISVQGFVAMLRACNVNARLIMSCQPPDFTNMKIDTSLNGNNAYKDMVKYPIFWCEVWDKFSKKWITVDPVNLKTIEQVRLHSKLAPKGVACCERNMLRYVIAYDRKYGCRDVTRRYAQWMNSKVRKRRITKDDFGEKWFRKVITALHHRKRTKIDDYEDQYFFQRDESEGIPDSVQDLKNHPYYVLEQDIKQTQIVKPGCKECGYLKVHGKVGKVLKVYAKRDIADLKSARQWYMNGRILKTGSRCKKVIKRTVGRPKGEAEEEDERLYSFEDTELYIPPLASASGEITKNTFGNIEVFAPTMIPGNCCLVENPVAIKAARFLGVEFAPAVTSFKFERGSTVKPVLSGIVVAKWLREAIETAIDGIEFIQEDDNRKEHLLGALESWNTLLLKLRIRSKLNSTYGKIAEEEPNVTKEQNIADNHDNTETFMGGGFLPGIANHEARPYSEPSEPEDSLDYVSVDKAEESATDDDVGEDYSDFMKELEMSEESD
T4 sequence (looked up) 2: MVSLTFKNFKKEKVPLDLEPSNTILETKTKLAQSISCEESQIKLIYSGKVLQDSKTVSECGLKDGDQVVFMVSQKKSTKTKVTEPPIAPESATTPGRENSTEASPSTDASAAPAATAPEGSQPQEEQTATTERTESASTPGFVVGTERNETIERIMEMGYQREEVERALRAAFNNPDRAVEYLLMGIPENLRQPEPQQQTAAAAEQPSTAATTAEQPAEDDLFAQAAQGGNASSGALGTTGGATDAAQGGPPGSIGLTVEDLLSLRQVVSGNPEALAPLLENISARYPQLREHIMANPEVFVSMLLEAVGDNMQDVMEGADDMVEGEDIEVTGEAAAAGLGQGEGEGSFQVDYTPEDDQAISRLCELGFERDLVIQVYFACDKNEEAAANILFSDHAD


Assays:
Conditions in all cases: both partners purified
Tfb2 = molecular target: T1, Tfb2; assay: cryo-EM structure; coreTFIIH and Rad4–Rad23–Rad33 on −24*/+24 AAF-DNA with ATP, glycerol gradient with glutaraldehyde; Map 1 3.86 Å (TFIIH), Map 2 9.2 Å, Map 3 7.9 Å; Rad4, Rad33 and the Tfb1 PH domain placed by rigid-body docking of known structures or homology models
Ssl2 = molecular target: T2, Ssl2; assay: as above
Rad4 = molecular target: T3, Rad4; assay: as above
[1] = molecular target: T4, Full-length Rad4–Rad23 complex; assay: co-sedimentation; 10–40% glycerol gradient (20 mM HEPES, 150 mM potassium acetate, 2 mM magnesium acetate, 4 mM DTT, 2 mM ATP or AMP-PNP), 52,000 rpm 6 h 35 min, 4 °C; Rad4–Rad23–Rad33 pre-assembled on −24*/+24 AAF-DNA, then added to TFIIH; fractions by SDS-PAGE

| binding result (Tfb2) | binding result (Ssl2) | binding result (Rad4) | binding result [1] | Binder |
| --- | --- | --- | --- | --- |
| binds |  |  |  | Tfb5 (natural protein, yeast, UniProt Q3E7C1 1-72, looked up, Tfb5 (p8 homologue), subunit of yeast coreTFIIH; Stood in the assays as part of coreTFIIH; also called yeast homologue of p8; source: purified from yeast as a subunit of coreTFIIH) MARARKGALVQCDPSIKALILQIDAKMSDIVLEELDDTHLLVNPSKVEFVKHELNRLLSKNIYNPMDEEENQ |
|  | binds | binds | binds | Rad33 (natural protein, yeast, Rad33 (CETN2 homologue), yeast; plasmid pETDuet-RAD33; also called yeast homologue of CETN2; source: E. coli Rosetta(DE3), purified (HisTrap, Q column)) MSKSTNVSYERVELFENPKVPIEVEDEILEKYAESSLDHDMTVNELPRFFKDLQLEPTIWKLVRNEDVIIEGTDVIDFTKLVRCTCQLLILMNNLTVIDDLWSMLIRNCGRDVDFPQVALRDHVLSVKDLQKISNLIGADQSSGTIEMISCATDGKRLFMTYLDFGCVLGKLGYLKM |
